The results in this text go back to article PMC7735678, “Auxin response factors (ARFs) differentially regulate rice antiviral immune response against rice dwarf virus”.

For this series, the target named is T1, GST-OsARF12 DBD (Oryza sativa (cDNA of ZH11), UniProt Q0J951 121-247).
T1 sequence: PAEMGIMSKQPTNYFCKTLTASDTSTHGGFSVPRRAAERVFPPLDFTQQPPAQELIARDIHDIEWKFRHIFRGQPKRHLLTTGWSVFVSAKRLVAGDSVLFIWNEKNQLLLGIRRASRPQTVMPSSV
Kind of series: EMSA; LightShift Chemiluminescent EMSA Kit (Thermo Scientific); buffer, salt, pH and temperature not stated. Conditions: protein: recombinant, tags: GST (N-terminal, pGEX-4T-1), blunt. (In general: Mobility shift assays separate free from complexed probe on a gel.)

B1: OsWRKY13 promoter AuxRE probe (dsDNA)
DNA 1: TGGTTCGTGATTAAGGGTTTGGTTACACCGTGTCCCGCTCACGGATAGGCTGCTTAATTCTCTTT
DNA 2: AAAGAGAATTAAGCAGCCTATCCGTGAGCGGGACACGGTGTAACCAAACCCTTAATCACGAACCA
For B1, the binding result (label: biotin) is on record as “binds”.

B2: OsWRKY13 AuxRE mutant probe (mCold) (dsDNA)
DNA 1: GTTACACCGAAAAAAGCTCACGGAT
DNA 2: ATCCGTGAGCTTTTTTCGGTGTAAC
Take B2: the binding result (label: biotin as probe) was “no binding”.
